Among the data in patent publication US20110201549A1 (UNIVERSITY OF GEORGIA RESEARCH FOUNDATION, published 2011) are Kd values, retold here.

The test deals with T1, chymotrypsin-treated Cry3Bb (Bacillus thuringiensis, UniProt Q06117 162-652).
T1 construct: Insecticidal Cry toxin; It was coated on microtiter plates after chymotrypsin treatment; also called Cry3Bb protein; Cry3Bb toxin
T1 sequence: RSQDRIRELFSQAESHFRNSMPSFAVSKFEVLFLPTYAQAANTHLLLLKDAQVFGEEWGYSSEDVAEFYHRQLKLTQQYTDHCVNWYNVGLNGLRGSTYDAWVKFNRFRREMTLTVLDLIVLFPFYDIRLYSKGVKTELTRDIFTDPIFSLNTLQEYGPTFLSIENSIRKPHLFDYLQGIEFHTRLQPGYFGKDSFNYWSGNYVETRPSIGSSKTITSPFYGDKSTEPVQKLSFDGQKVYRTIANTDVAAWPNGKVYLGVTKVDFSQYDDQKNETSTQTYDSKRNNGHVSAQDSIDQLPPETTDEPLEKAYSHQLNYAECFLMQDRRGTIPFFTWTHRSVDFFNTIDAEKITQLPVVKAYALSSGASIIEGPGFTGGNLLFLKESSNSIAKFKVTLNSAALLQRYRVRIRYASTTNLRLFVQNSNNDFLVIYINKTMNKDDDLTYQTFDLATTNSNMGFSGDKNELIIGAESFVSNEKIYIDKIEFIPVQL
Kind of test: ELISA-based microplate binding assay: plates coated with chymotrypsin-treated Cry3Bb, increasing concentrations of biotinylated TmCad1-TBR, streptavidin-HRP detection, one site saturation fit. On the procedure: FIG. 7 illustrates TmCad1-TBR binding to Cry3Bb (Panel A) and enhancement of Cry3Bb toxicity to lesser mealworm by TmCad1-TBR peptides (Panel B). In Panel A, TmCad1-TBR binding to Cry3Bb protein was determined using an ELISA-based binding assay. Microtiter plates were coated with chymotrypsin-treated Cry3Bb and then incubated with increasing various concentrations of biotinylated TmCad1-TBR peptide. Bound biotinylated TmCad1-TBR peptide was detected with a Streptavidin-HRP conjugate and substrate. Non-specific binding was determined in the presence of 1000-fold excess unlabeled TmCad1-TBR peptide. Each data point is the mean of two experiments done in duplicate. Error bars depict standard deviation. Binding affinities (Kd) were calculated based on specifically bound biotinylated TmCad1-TBR peptide using a one site saturation binding equation. […] Cry3Bb inclusions without or with and increased amount of TmCad1-TBR inclusions were applied to semi-solid diet. One 1st instar darkling beetle larva was applied per well and the bioassays was scored on day 3. No toxicity was observed when treated with TmCad1-TBR peptide alone.
We tested the possibility that TmCad1-TBR binds a coleopteran-active Cry toxins using a microplate binding assay described previously (Zhang et al. 2008). […] TmCad1-TBR also enhances Cry3Bb toxicity to A. diaperinus larvae (FIG. 7A).
(ELISA stands for enzyme-linked immunosorbent assay.)

B1: TmCad1-TBR cadherin fragment from the Tenebrio molitor cadherin (T. molitor cadherin Toxin Binding Region) (receptor)
chain: MKQWYQRRVAITAGKDTTSKDKLQYNIDNITPSNLDLDIKSAFTMNTQSGDITINFEVKDSMEGYFTLDLSVQDEEPENHKADATLKIYIVTSKNTVVFRFENDQETVSDKAGDIKSVLDEEFQYETKVEAPTGNTTDGTPLTRSPVFFLNLNTNEPVDATEILKKVTNVDVFQRLKNNFSKVGLVLLSFDSSSETNENLEAHHHHHH
modifications: biotinylated (sites not given)
notes: also called CR12-MPED of TmCad1
Regarding B1, the affinity, expressed as Kd, was 13 nM.
